From patent publication US20180273614A1 (GALAPAGOS, published 2018)

Key:
human IL-17C = molecular target: T1, human IL-17C (human, UniProt Q9P0M4 19-197); assay: IHC on paraffin sections of human skin (healthy and atopic dermatitis), biotinylated antibody, avidin-biotin-peroxidase detection
T1 construct: Endogenous IL-17C in paraffin sections of human skin biopsies (IHC); The background calls IL-17C a secreted homodimer; also called interleukin 17C
T1 sequence: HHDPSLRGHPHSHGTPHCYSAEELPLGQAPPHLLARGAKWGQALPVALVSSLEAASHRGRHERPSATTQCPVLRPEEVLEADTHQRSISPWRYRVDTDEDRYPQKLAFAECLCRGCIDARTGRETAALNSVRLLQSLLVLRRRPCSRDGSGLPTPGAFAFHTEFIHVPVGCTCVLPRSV
Description: (§1) 4 μm-thick slices from paraffin-embedded skin biopsies from healthy subjects and subjects with atopic dermatitis were analyzed by IHC. Staining for IL-17C expression was performed with biotinylated MOR22420 (and MOR03207 isotype control antibody). In brief, sections were deparaffinised, rehydrated and unmasked by heat epitope antigen retrieval. Endogenous peroxidase was blocked in BLOXALL™ Blocking Solution (Vector Laboratories) and non-specific binding was blocked with 2.5% Horse Serum Blocking Solution (Vector Laboratories). The primary antibodies were incubated for one hour at room temperature. Binding of MOR22420 biotinylated antibody and MOR03207 biotinylated antibody was detected by incubation with Avidin Biotin Peroxidase Complex (Vector Laboratories). The signal was developed using the peroxidase substrate diaminobenzidine tetrahydrochloride (Sigma). Mayer's hematoxylin (BDH) was used for counterstaining before dehydration and mounting of slides.

murine IL-17C = molecular target: T2, murine IL-17C (mouse, UniProt Q8K4C5 17-194, limits assumed); assay: IHC on paraffin sections of mouse ear skin (MC903 model), biotinylated antibody
T2 construct: Endogenous IL-17C in paraffin sections of ear skin of BALB/c mice (IHC); also called IL-17C (mouse skin)
T2 sequence (looked up): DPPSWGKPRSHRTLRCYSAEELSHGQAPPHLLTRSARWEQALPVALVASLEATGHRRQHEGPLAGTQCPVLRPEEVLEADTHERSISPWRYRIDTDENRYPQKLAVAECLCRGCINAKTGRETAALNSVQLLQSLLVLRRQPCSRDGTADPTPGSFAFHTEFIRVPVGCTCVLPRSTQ
Description: as §1
At sacrifice, samples form ear skin were collected and fixed in 4% formaldehyde before embedding in paraffin. […] Five fields per ear (high power field ×20) covering the whole ear from top to bottom were measured, and the 5 values were averaged per ear and per mice (left/right ear). […]

B1: MOR22420 (antibody, V domains shown)
VH: QVQLVQSGAEVKKPGSSVKVSCKASGGTFSSYAISWVRQAPGQGLEWMGTIDPFFGKTYYAQKFQGRVTITADESTSTAYMELSSLRSEDTAVYYCARDVSSISYYFHEYYSDRFDYWGQGTLVTVSS
VL: DIALTQPASVSGSPGQSITISCTGTSSDVGGYEYVNWYQQHPGKAPKLMIYDDSYRPSGVSNRFSGSKSGNTASLTISGLQAEDEADYYCQSTDPHSTVVFGGGTKLTVLG
notes: also called biotinylated MOR22420; MOR22420 antibody
Human IL-17C
  binding result: binds

B2: MOR12743 (antibody, V domains shown)
VH: QVQLVQSGAEVKKPGASVKVSCKASGYTFTSNFIHWVRQAPGQGLEWMGWISPYNGDTNYAQKFQGRVTMTRDTSISTAYMELSRLRSEDTAVYYCARESVYYGSDYGYNGMDIWGQGTLVTVSS
VL: DIELTQPPSVSVSPGQTASITCSGDNLGEEYVSWYQQKPGQAPVLVIYDDTKRPSGIPERFSGSNSGNTATLTISGTQAEDEADYYCASWDLWSVEVFGGGTKLTVLG
notes: Said to be disclosed and characterized in WO 2013/057241; also called anti-IL-17C biotinylated MOR12743 antibody; anti-IL-17C MORI 2743 antibody
Murine IL-17C
  binding result: binds
